Among the data in article PMC12196045 are binding values, retold here.

This data set deals with T1, OmpR-N6His (Xenorhabdus nematophila YL001) (UniProt D3VF01).
T1 sequence: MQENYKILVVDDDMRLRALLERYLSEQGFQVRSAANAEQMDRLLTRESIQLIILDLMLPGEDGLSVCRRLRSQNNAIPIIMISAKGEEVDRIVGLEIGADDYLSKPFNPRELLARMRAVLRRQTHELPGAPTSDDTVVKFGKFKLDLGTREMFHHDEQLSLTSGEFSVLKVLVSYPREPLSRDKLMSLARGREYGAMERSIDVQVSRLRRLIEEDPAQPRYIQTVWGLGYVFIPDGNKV
Kind of data set: EMSA. The following applies: EMSA: 5x buffer 250 mM Tris, 250 mM KCl, 0.5 mM DTT, 50 mM MgCl2, 25% glycerol, pH 8.0 (1x: 50 mM Tris, 50 mM KCl, 0.1 mM DTT, 10 mM MgCl2, 5% glycerol); 30 min. Background: Mobility shift assays separate free from complexed probe on a gel.
For the sequence “TTTGGATTGCATAAATTTTGTTAAGAAAGGAGAAAAATAAAACCCCATGATAGTCTAAATAGTAAAAAAATGAAGTAAACCTTTGCCCTATTTAATAGAGTAGAGTAATGTCACAATCGGTATTATTTTATTTGATACTGCTGAAGTAAAAACACCAGGTTAGTTAGTAATTAAAATCAAAAAAAAGTGATGAATAAACAATG (double strand) [PlrhA203]”, the binding result is given as “no binding”.

In the case of “TACGGCTACGTAAATAATAAAGCATTGGTTATGTCTGTTTGTTTTTTTGTACAAGGACGAATCTCAATTTAATTTCGAAAAATTGAGGTCATTGATCTTATTAATGGGTAGGTTGTTTACGATGTCAAAATGTTGCATTTGAAAACAGACAATCTTCCATTATTTAATGAGATCACTGCGATAAGTTTAGTGGAGTGAAATA (double strand) [PleuO202]”, the binding result is on record as “no binding”.

With “CCGGCCTTTGGTAATAAATCAGGATAATTGAGTGATGTAAACGGGAAAACAAGGGGAAAAAACCAAAGCATAAGCAATGATTGCCAATACGGTTAATGGCCTTAAAATACATGTGGTTAGTTTCTATTGAATATGGGGTTTCGGTAAAAGTCATGGATATTGCGGGCATGGAGCATCTTGGGAGCTGAAAC (double strand) [PompR191]”, the binding entry was “no binding”.

In the case of “TAATTCTTCCTCCAAGAGCAAAATACGATAACAAACTCCGCTATTCCATGACTTTACGTTCTTTTACATGCTCTGACGCTAGTTTGCAGCCGCAGGGTTATAGTTATCCACACTGAATCGAATAGAGCTATTCGAGAAAGCGGAGAAATTTAATGC (double strand) [PcpxR156]”, the binding entry is listed as “no binding”.
